Test results taken from the Human Domainome abundance scans (Beltran et al. 2025).
± gives the uncertainty stated by the source.

B1: Segment polarity protein dishevelled homolog DVL-3, residues 2 to 81; numbered along this chain, Q92997 (parent)
chain: GETKIIYHLDGQETPYLVKLPLPAERVTLADFKGVLQRPSYKFFFKSMDDDFGVVKEEISDDNAKLPCFNGRVVSWLVSA

Variants of: B1
Assay: abundance fitness (aPCA) (normalised: wild type 0, dead -1); higher = more abundant; growth selection in yeast, the domain comes from the species named
Conditions: Homo sapiens

Variant	abundance fitness
R26I	-0.34 ± 0.14
R26E	0.086 ± 0.054
R26V	-0.08 ± 0.057
R26S	-0.068 ± 0.055
R26K	0.039 ± 0.066
R26Y	-0.414 ± 0.13
R26H	-0.182 ± 0.12
R26G	-0.441 ± 0.057
R26P	-0.675 ± 0.11
R26Q	0.123 ± 0.056
R26T	-0.188 ± 0.079
R26C	-0.102 ± 0.09
R26M	-0.276 ± 0.088
R26W	-0.78 ± 0.11
R26D	-0.027 ± 0.091
R26L	-0.081 ± 0.05
R26A	0.027 ± 0.053
L20A	-1.06 ± 0.14
L20G	-0.625 ± 0.059
L20D	-0.68 ± 0.14
L20Q	-1.09 ± 0.24
L20F	-0.336 ± 0.16
L20S	-0.664 ± 0.094
L20K	-0.666 ± 0.13

Variant	abundance fitness
L20M	-0.679 ± 0.13
L20C	-0.632 ± 0.13
L20R	-0.779 ± 0.077
L20V	0.104 ± 0.043
L20E	-0.615 ± 0.092
L20P	-0.954 ± 0.18
L20W	-0.472 ± 0.069
L20I	0.101 ± 0.089
L20T	-0.836 ± 0.17
L22T	-0.598 ± 0.11
L22E	-0.617 ± 0.12
L22M	-0.017 ± 0.073
L22Q	-0.429 ± 0.1
L22W	-0.578 ± 0.084
L22C	-0.231 ± 0.1
L22H	-0.617 ± 0.17
L22G	-0.856 ± 0.083
L22V	0.059 ± 0.047
L22R	-0.656 ± 0.071
L22P	-0.645 ± 0.12
L22F	-0.502 ± 0.17
L22N	-0.923 ± 0.24
L22D	-0.574 ± 0.12
L22K	-0.019 ± 0.068

Variant	abundance fitness
L22S	-0.822 ± 0.1
L22A	-0.604 ± 0.085
Q12E	0.219 ± 0.08
Q12P	-0.638 ± 0.18
Q12L	-0.305 ± 0.072
Q12Y	-0.019 ± 0.08
Q12F	-0.227 ± 0.1
Q12S	0.263 ± 0.052
Q12A	-0.129 ± 0.068
Q12I	0.083 ± 0.078
Q12W	-0.612 ± 0.14
Q12M	0.063 ± 0.088
Q12V	-0.012 ± 0.064
Q12K	-0.088 ± 0.11
Q12R	-0.053 ± 0.06
Q12D	0.386 ± 0.069
Q12C	0.126 ± 0.064
Q12N	0.269 ± 0.067
Q12G	0.129 ± 0.057
Q12T	-0.106 ± 0.075
Q12H	0.134 ± 0.075
K19E	-0.034 ± 0.062
K19H	-0.07 ± 0.1
K19C	-0.024 ± 0.073

Variant	abundance fitness
K19A	-0.143 ± 0.059
K19R	-0.132 ± 0.046
K19W	-0.357 ± 0.073
K19G	-0.635 ± 0.069
K19F	-0.215 ± 0.12
K19P	-0.797 ± 0.13
K19Y	-0.154 ± 0.11
K19I	0.314 ± 0.073
K19D	-0.547 ± 0.15
K19M	0.058 ± 0.066
K19V	0.383 ± 0.043
K19N	-0.133 ± 0.097
K19Q	-0.297 ± 0.084
K19T	0.271 ± 0.054
K19S	0.157 ± 0.05
A30L	-0.562 ± 0.08
A30D	-0.967 ± 0.2
A30E	-0.831 ± 0.14
A30G	-0.045 ± 0.046
A30C	-0.696 ± 0.15
A30M	-0.479 ± 0.1
A30I	-0.82 ± 0.21
A30F	-0.858 ± 0.21
A30H	-0.692 ± 0.19

Variant	abundance fitness
A30K	0.007 ± 0.066
V27T	-0.762 ± 0.16
V27I	0.003 ± 0.1
V27R	-0.875 ± 0.087
V27H	-0.664 ± 0.19
V27S	-0.675 ± 0.1
V27A	-0.478 ± 0.079
V27K	-0.469 ± 0.11
V27N	-0.785 ± 0.24
V27W	-0.929 ± 0.14
V27G	-0.675 ± 0.063
V27P	-0.656 ± 0.14
V27C	-0.119 ± 0.079
V27Q	-0.831 ± 0.18
V27D	-0.987 ± 0.24
V27Y	-0.651 ± 0.23
V27F	-0.154 ± 0.12
V27E	-0.624 ± 0.099
A24N	-0.415 ± 0.15
A24S	-0.03 ± 0.056
A24G	-0.168 ± 0.048
A24M	-0.546 ± 0.15
A24P	0.17 ± 0.062
A24Q	-0.074 ± 0.084

Variant	abundance fitness
A24R	-0.492 ± 0.062
A24I	-0.431 ± 0.18
A24T	-0.51 ± 0.11
A24D	-0.54 ± 0.15
A24L	-0.356 ± 0.063
A24Y	-0.325 ± 0.15
A24E	-0.415 ± 0.087
A24W	-0.235 ± 0.08
A24V	-0.42 ± 0.074
A24F	-0.549 ± 0.15
A24K	-0.174 ± 0.1
A24C	-0.107 ± 0.088
A24H	-0.505 ± 0.17
T28N	-0.715 ± 0.15
T28I	-0.578 ± 0.15
T28R	-0.379 ± 0.053
T28E	-0.985 ± 0.14
T28G	-0.597 ± 0.064
T28L	-0.73 ± 0.091
T28S	-0.757 ± 0.099
T28F	-0.321 ± 0.16
T28V	-0.574 ± 0.073
T28H	-0.411 ± 0.14
T28K	-0.52 ± 0.1

Variant	abundance fitness
T28D	-0.401 ± 0.14
T28Q	-0.811 ± 0.13
T28C	-0.793 ± 0.16
T28M	-0.604 ± 0.11
T28P	-0.555 ± 0.1
T28W	-0.851 ± 0.12
E13V	-0.426 ± 0.082
E13W	-0.351 ± 0.11
E13L	-0.42 ± 0.072
E13F	-0.549 ± 0.099
E13C	-0.251 ± 0.081
E13R	-0.092 ± 0.053
E13D	-0.129 ± 0.082
E13K	0.064 ± 0.082
E13H	-0.473 ± 0.1
E13G	-0.348 ± 0.075
E13N	-0.222 ± 0.08
E13S	-0.107 ± 0.053
E13T	-0.129 ± 0.076
E13Q	-0.034 ± 0.091
E13A	-0.183 ± 0.068
E13P	-0.011 ± 0.065
E13I	-0.184 ± 0.083
E13M	-0.047 ± 0.085

Variant	abundance fitness
E13Y	-0.526 ± 0.1
G11Y	-0.391 ± 0.14
G11W	-0.466 ± 0.086
G11P	-0.668 ± 0.12
G11V	-0.919 ± 0.096
G11R	-0.435 ± 0.059
G11Q	-0.322 ± 0.099
G11S	-0.262 ± 0.061
G11T	-0.418 ± 0.091
T14R	0.096 ± 0.048
T14N	-0.049 ± 0.071
T14D	0.038 ± 0.074
T14F	-0.092 ± 0.085
T14C	-0.112 ± 0.086
T14A	-0.123 ± 0.063
T14K	0.286 ± 0.052
T14Q	0.114 ± 0.064
T14M	-0.265 ± 0.086
T14S	-0.104 ± 0.059
T14I	0.024 ± 0.073
T14V	-0.128 ± 0.059
T14Y	-0.955 ± 0.2
T14G	-0.296 ± 0.065
T14E	0.215 ± 0.059

Variant	abundance fitness
T14W	-0.529 ± 0.11
T14P	-0.129 ± 0.079
T14L	-0.328 ± 0.061
T14H	0.281 ± 0.12
Y16H	0.23 ± 0.082
Y16L	0.025 ± 0.049
Y16D	-0.708 ± 0.17
Y16E	-0.167 ± 0.065
Y16M	0.096 ± 0.062
Y16Q	0.16 ± 0.062
Y16T	-0.15 ± 0.07
Y16C	0.041 ± 0.073
Y16N	-0.157 ± 0.11
Y16I	0.216 ± 0.092
Y16F	-0.082 ± 0.097
Y16K	0.074 ± 0.066
Y16A	-0.593 ± 0.086
Y16W	-0.572 ± 0.12
Y16P	-0.869 ± 0.15
Y16S	-0.213 ± 0.062
Y16V	-0.115 ± 0.055
P23D	-0.469 ± 0.13
P23F	-0.405 ± 0.14
P23V	-0.739 ± 0.1

Variant	abundance fitness
P23G	-0.73 ± 0.082
P23T	-0.862 ± 0.14
P23I	-0.112 ± 0.14
P23C	-0.79 ± 0.18
P23L	-0.682 ± 0.1
P23E	-0.383 ± 0.085
P23W	-0.863 ± 0.14
P23Q	-0.731 ± 0.13
P23R	-0.625 ± 0.069
P23Y	-0.517 ± 0.21
P23K	-0.671 ± 0.12
P23A	-0.395 ± 0.089
P23H	-0.55 ± 0.18
P23N	-0.833 ± 0.23
P23M	-0.972 ± 0.2
E25L	-0.825 ± 0.12
E25F	-0.913 ± 0.22
E25I	-0.658 ± 0.25
E25W	-0.457 ± 0.095
E25R	-0.59 ± 0.072
E25M	-0.335 ± 0.22
E25T	-0.356 ± 0.12
E25P	-0.965 ± 0.19
E25H	-0.022 ± 0.098

Variant	abundance fitness
E25S	-0.115 ± 0.064
E25Q	-0.389 ± 0.1
E25V	-0.807 ± 0.12
E25Y	-0.501 ± 0.14
E25N	-0.006 ± 0.095
E25G	-0.096 ± 0.048
E25C	-0.035 ± 0.083
E25A	-0.252 ± 0.07
E25K	-0.474 ± 0.11
L17R	-0.337 ± 0.054
L17W	0.022 ± 0.055
L17H	0.335 ± 0.091
L17G	-0.434 ± 0.061
L17N	-0.482 ± 0.16
L17Y	0.258 ± 0.086
L17Q	0.271 ± 0.057
L17D	-0.677 ± 0.2
L17C	0.347 ± 0.068
L17A	-0.098 ± 0.057
L17E	0.75 ± 0.046
L17I	0.447 ± 0.084
L17K	-0.367 ± 0.093
L17F	0.328 ± 0.068
L17P	-0.907 ± 0.15

Variant	abundance fitness
L17M	0.428 ± 0.061
L17T	0.479 ± 0.049
L17S	0.245 ± 0.047
P21R	-0.575 ± 0.066
P21C	-0.391 ± 0.094
P21V	-0.789 ± 0.087
P21W	-0.712 ± 0.11
P21K	-0.449 ± 0.092
P21T	-0.592 ± 0.1
P21Y	-0.693 ± 0.2
P21L	-0.758 ± 0.088
P21N	0.003 ± 0.091
P21G	-0.56 ± 0.066
P21F	-0.588 ± 0.18
P21E	-0.293 ± 0.074
P21A	-0.169 ± 0.057
P21H	-0.196 ± 0.1
P21M	-0.426 ± 0.091
P21D	-0.253 ± 0.096
P21I	-0.561 ± 0.17
P21S	-0.313 ± 0.069
P21Q	-0.269 ± 0.084
L29N	-0.865 ± 0.22
L29G	-0.643 ± 0.065

Variant	abundance fitness
L29M	-0.71 ± 0.15
L29C	-0.287 ± 0.12
L29T	-0.608 ± 0.098
L29A	-0.639 ± 0.089
L29E	-0.782 ± 0.11
L29S	-0.498 ± 0.078
L29W	-0.783 ± 0.12
L29Q	-0.91 ± 0.15
L29K	-0.917 ± 0.14
L29H	-0.433 ± 0.14
L29D	-0.97 ± 0.21
L29I	-0.675 ± 0.19
L29Y	-0.321 ± 0.16
P15S	-0.078 ± 0.058
P15Q	-0.064 ± 0.077
P15C	-0.33 ± 0.14
P15N	-0.529 ± 0.17
P15L	-0.654 ± 0.092
P15D	-0.464 ± 0.11
P15G	-0.47 ± 0.054
P15R	-0.406 ± 0.052
P15A	-0.142 ± 0.055
P15H	-0.348 ± 0.18
P15F	-0.891 ± 0.48

Variant	abundance fitness
P15I	-0.863 ± 0.22
P15Y	-0.743 ± 0.21
P15E	0.136 ± 0.052
P15T	-0.058 ± 0.065
V18H	-0.298 ± 0.12
V18C	-0.558 ± 0.11
V18T	-0.33 ± 0.079
V18D	-0.694 ± 0.15
V18S	-0.906 ± 0.11
V18I	-0.025 ± 0.078
V18Q	-0.872 ± 0.15
V18F	-0.707 ± 0.19
V18M	-0.247 ± 0.083
V18N	-0.329 ± 0.12
V18W	-0.643 ± 0.095
V18E	-0.68 ± 0.088
V18A	-0.264 ± 0.059
V18G	-0.612 ± 0.059
V18L	-0.054 ± 0.049
V18K	-0.601 ± 0.13
V18Y	-0.589 ± 0.14
V18R	-0.717 ± 0.07
